The results in this text go back to US20140348834A1 (published 2014).

Positions count from the first letter of the chain named.

The labels stand for the following.
T1: mouse IL-17A (mouse, UniProt Q62386 26-158, limits assumed)
T1 construct: Purified recombinant protein in SPR; also called MuIL-17A; murine IL-17A
T1 sequence (looked up): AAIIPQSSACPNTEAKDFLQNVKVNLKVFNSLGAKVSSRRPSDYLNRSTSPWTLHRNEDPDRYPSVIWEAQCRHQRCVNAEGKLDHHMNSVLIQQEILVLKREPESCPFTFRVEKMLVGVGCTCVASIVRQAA

T2: rat IL-17A (rat, UniProt Q61453 18-150, limits assumed)
T2 construct: Purified recombinant protein in SPR
T2 sequence (looked up): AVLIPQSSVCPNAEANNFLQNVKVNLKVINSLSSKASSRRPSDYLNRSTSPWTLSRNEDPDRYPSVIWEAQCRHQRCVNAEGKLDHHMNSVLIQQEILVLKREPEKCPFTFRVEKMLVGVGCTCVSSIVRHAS

B1: IL17-h5C5.19 (antibody, V domains shown)
VH: QVQLQQSGAELVRPGASVKLSCKALGYTFTDYEFHWVKQTPVHGLEWIGVIHPGNGGTAYNQNFRDKATLTADKSSSTAYMELSSLTSEDSGVYYCTRFLTYEGYFDYWGQGTALTVSS
VL: NIVMTQSPATLSVSPGERATLSCKASQSVSIDVGWFQQKPGQSPRLLIYHASNRYTGVPARFSGSGSGTDFTLTISSLQPEDFAVYFCQQDYSSPYTFGQGTKLEIKR
notes: IgG; constant regions not specified
B2: IL17-h5C5.2 (antibody, V domains shown)
VH: EVQLVQSGAEVKKPGASVKVSCKASGYTFTDYEFHWVRQAPGQGLEWMGVIHPGNGGTAYNQNFRDRVTITADKSTSTAYMELSSLRSEDTAVYYCARFLTYEGYFDYWGQGTLVTVSS
VL: NIVMTQTPKFLLVSPGDRVTITCKASQSVSIDVGWFQQKPGQSPKLLIYHASNRYTGVPDRFTGSGYGTDFTFTVNTVQAEDLAVYFCQQDYSSPYTFGGGTKLELKR
notes: as for B1
B3: IL17-h5C5.15 (antibody, V domains shown)
VH: B2 VH with M48I, V68A, I70L, A97T
VL: B1 VL with N1E
notes: IgG; constant regions not specified; also called h5C5.15 (VH.1b-Vk.3a)
B4: IL17-h5C5.20 (antibody, V domains shown)
VH: B2 VH
VL: B1 VL
notes: as for B1
B5: IL17-h5C5.21 (antibody, V domains shown)
VH: B2 VH with M48I, V68A, I70L, A97T
VL: B1 VL
notes: IgG; constant regions not specified; also called h5C5.21 (VH.1b-Vk.3c)
B6: IL17-h5C5.14 (antibody, V domains shown)
VH: B2 VH
VL: B1 VL with N1E
notes: IgG; constant regions not specified; also called h5C5.14 (VH.1-Vk.3a)
B7: IL17-h5C5.11 (antibody, V domains shown)
VH: B2 VH
VL: B1 VL with N1E, F36Y, S43A, V58I, F87Y
notes: as for B1
B8: IL17-h10F7.4 (antibody, V domains shown)
VH: QVQLQQSGAELVRPGTSVTLSCKASGYIFTDYEIHWVKQTPVHGLEWIGVNDPESGGTFYNQKFDGKAELTADKSSSTAYMELRSLTSEDSGVYYCTRYYRYESFYGMDYWGQGTSITVSS
VL: DIQLTQSPSSLSASVGDRVTITCSASSSISYIYWFQQKPGKSPKRWIYATFELASGVPSRFSGSGSGTDYTLTISSLQPEDFATYYCHQRSSYPWTFGQGTKLEIKR
notes: as for B1
B9: IL17-h10F7.9 (antibody, V domains shown)
VH: B8 VH
VL: EIVLTQSPDFQSVTPKEKVTITCSASSSISYIYWFQQKPDQSPKRWIYATFELASGVPSRFSGSGSGTDYTLTINSLEAEDAATYYCHQRSSYPWTFGQGTKLEIKR
notes: as for B1
B10: ML109-1D8 (antibody, V domains shown)
VH: B1 VH with L25S, T30S, F34M, N63K, S77T, G92A, T97I, A114T
VL: SIVMTQTPKFLLVSAGDRVTITCKASQSVNNDVAWFQHKPGQSPKLLINYASNRYTGVPDRFTGSGYGTDFTFTISTVQSEDLAIYFCQQDYGSPYTFGGGTTLEIKR
B11: IL17-G9-2 (antibody, V domains shown)
VH: EVQLLESGGGVVQPGRSLRLSCAASGFIFRNYGMHWVRQAPGKGLEWVAVISYDGSNKYYADSVKGRFTISRDNSKNTLYLEMNSLRPEDTAVYYCAKVGASGDYYYSYGLDVWGQGTTVTVSS
VL: QSVLTQPPSASGTPGQTVSISCSGSNSNIGRHPVDWYQQVPGAAPKLLIYYDDQRPSGVPDRFSGSQSGTSASLAISGLQSEDEADYYCATWDDSLGGYVFGSGTKVTVLG
B12: IL17-G9-4 (antibody, V domains shown)
VH: B11 VH with R30S
VL: B11 VL with S25R, N26Q, P33Y, I49M, D53S, Q54I
notes: no own VH entry is printed
B13: IL17-G9-M2 (antibody, V domains shown)
VH: B11 VH with R30S
VL: B11 VL with S25H, R31Y, P33Y, D35H, Y51G, D53G, Q54W, A90G, S95W, S103T

T3 sequence (A0A2K5TTB0 entry or part of it): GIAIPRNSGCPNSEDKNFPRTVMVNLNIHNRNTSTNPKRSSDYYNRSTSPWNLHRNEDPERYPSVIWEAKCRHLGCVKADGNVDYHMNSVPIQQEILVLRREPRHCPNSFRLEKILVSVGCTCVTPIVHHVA

The first test has as its target T3, cynomolgus monkey IL-17A (cynomolgus monkey, UniProt A0A2K5TTB0 24-155). The test is described as follows: cell-based or functional assay.
As to B1, the “Potency (pM), IL-17-driven IL-6 production in HS27 cells” value (“Potency (pM)” below) is 9 pM.

For the molecule B2, the “Potency (pM)” value is 11 pM.

B3: the “Potency (pM)” value is 12 pM.

On to B4, for which the “Potency (pM)” value is 13 pM.

As for B5, the “Potency (pM)” value stood at 9 pM.

Regarding B6, the “Potency (pM)” value worked out at 16 pM.

Take B7: the “Potency (pM)” value came to 90 pM.

The next test addresses T4, human IL-17A (human, UniProt Q16552 24-155). As to the kind of experiment: cell-based or functional assay.
T4 sequence (Q16552 24-155): as the sequence (A0A2K5TTB0 entry or part of it) above, with A3T, S8P, S34N, V77I, K78N, R104P counted along it
On to B1, for which the “Potency (pM)” value amounted to 11 pM.

In the case of B2, the “Potency (pM)” value was found to be 6 pM.

As to B3, the “Potency (pM)” value was 13 pM.

As for B4, the “Potency (pM)” value turned out to be 12 pM.

On to B5, for which the “Potency (pM)” value came out at 9 pM.

As to B6, the “Potency (pM)” value turned out to be 18 pM.

Turning to B7, the “Potency (pM)” value was 115 pM.

The next test concerns the target T3, cynomolgus monkey IL-17A. The test is described as follows: SPR (Biacore 3000), antibody captured by anti-Fc, antigen in solution.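 Note: purified recombinant IL-17 antigens flowed over captured antibodies in HBS-EP buffer, global Langmuir one-to-one fit of association and dissociation phases, KD derived from koff over kon.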 A general note: In SPR one partner is held on a chip, and binding of the other changes the refractive index at the surface.
Experimental: (§1) The binding of antibodies to purified recombinant human, cyno, rat, mouse, rabbit IL-17 and human IL-17A/F were determined by surface plasmon resonance-based measurements with a Biacore® 3000 instrument (Biacore® AB, Uppsala, Sweden) using running HBS-EP (10 mM HEPES [pH 7.4], 150 mM NaCl, 3 mM EDTA, and 0.005% surfactant P20) at 25° C. […] Approximately 5000 RU of goat anti-mouse or anti-human IgG (Fcγ) fragment specific polyclonal antibody (Pierce Biotechnology Inc, Rockford, Ill.) diluted in 10 mM sodium acetate (pH 4.5) was directly immobilized across a CM5 research grade biosensor chip using a standard amine coupling kit according to manufacturer's instructions and procedures at 25 μg/ml. Unreacted moieties on the biosensor surface were blocked with ethanolamine. Modified carboxymethyl dextran surface in flowcell 2 and 4 was used as a reaction surface. Unmodified carboxymethyl dextran without goat anti-mouse or anti-human IgG in flow cell 1 and 3 was used as the reference surface. For kinetic analysis, rate equations derived from the 1:1 Langmuir binding model were fitted simultaneously to association and dissociation phases of all eight injections (using global fit analysis) with the use of Biaevaluation 4.0.1 software. Purified antibodies were diluted in HEPES-buffered saline for capture across goat anti-mouse or anti-human IgG specific reaction surfaces. Antibodies to be captured as a ligand (25 μg/ml) were injected over reaction matrices at a flow rate of 5 μl/min. The association and dissociation rate constants, kon (unit M-1s-1) and koff (unit s-1) were determined under a continuous flow rate of 25 μl/min. Rate constants were derived by making kinetic binding measurements at ten different antigen concentrations ranging from 10 nM to 200 nM. The equilibrium dissociation constant (unit M) of the reaction between antibodies and recombinant purified IL-17 antigens was then calculated from the kinetic rate constants by the following formula: KD=koff/kon. Binding was recorded as a function of time and kinetic rate constants are calculated. In this assay, on-rates as fast as 10⁶ M⁻¹ s⁻¹ and off-rates as slow as 10⁻⁶ s⁻¹ can be measured.
As a reminder, the Kd is the equilibrium constant for the complex coming apart. By koff is commonly meant the first-order rate constant of dissociation. What is called kon is a measure of how fast the partners come together. B3 returned a Kd of 358 pM, a koff of 0.000216 s⁻¹ and a kon of 603000 M⁻¹ s⁻¹.

Turning to B5, binding was characterised by a dissociation constant (Kd) of 406 pM, the koff was 0.00024 s⁻¹ and the kon turned out to be 591000 M⁻¹ s⁻¹.

As for B6, binding was put at a Kd of 245 pM, the koff stood at 0.000229 s⁻¹ and the kon amounted to 934000 M⁻¹ s⁻¹.

A further test deals with T4, human IL-17A. Described as above.
Experimental: as §1
Molecule B3 showed a Kd of 458 pM, a koff of 0.000437 s⁻¹ and a kon of 954000 M⁻¹ s⁻¹.

B5 registered a Kd of 729 pM, a koff of 0.000395 s⁻¹ and a kon of 542000 M⁻¹ s⁻¹.

B6 had a Kd of 363 pM, a koff of 0.000472 s⁻¹ and a kon of 1.3e+06 M⁻¹ s⁻¹.

Another test has as its target T5, human IL-17A/F (human, UniProt Q16552 24-155; Q96PD4 31-163).
T5 construct: Recombinant; biotinylated in the ELISA; also called hIL-17A/F; HuIL-17A/F
The test is described as above.
T5 sequence (Q16552 24-155, chain 1 of 2): as the sequence (A0A2K5TTB0 entry or part of it) above, with A3T, S8P, S34N, V77I, K78N, R104P counted along it
T5 sequence (Q96PD4 31-163, chain 2 of 2): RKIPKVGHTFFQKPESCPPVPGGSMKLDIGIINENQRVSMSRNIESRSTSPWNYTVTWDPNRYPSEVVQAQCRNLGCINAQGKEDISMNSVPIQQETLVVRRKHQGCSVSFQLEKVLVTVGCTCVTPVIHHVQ
Experimental: as §1
Take B3: the Kd was 1430 pM, the koff is 0.00112 s⁻¹ and the kon was 781000 M⁻¹ s⁻¹.

On to B5, for which the Kd is 1390 pM, the koff stood at 0.00111 s⁻¹ and the kon was 801000 M⁻¹ s⁻¹.

For the molecule B6, binding was put at a Kd of 1110 pM, the koff is 0.00119 s⁻¹ and the kon is 1.07e+06 M⁻¹ s⁻¹.

Another test deals with T1, mouse IL-17A. Described as above.
Experimental: as §1
The molecule B3 gave a Kd of 2830 pM, a koff of 0.000557 s⁻¹ and a kon of 197000 M⁻¹ s⁻¹.

Consider B5, for which the Kd came to 3060 pM, the koff is 0.000524 s⁻¹ and the kon worked out at 171000 M⁻¹ s⁻¹.

On to B6, for which binding was characterised by a dissociation constant (Kd) of 1860 pM, the koff was determined as 0.000494 s⁻¹ and the kon is 266000 M⁻¹ s⁻¹.

The target in another test is T2, rat IL-17A. The test is described as above.
Experimental: as §1
Molecule B3 returned a Kd of 5800 pM, a koff of 0.0036 s⁻¹ and a kon of 621000 M⁻¹ s⁻¹.

In the case of B5, the Kd amounted to 5970 pM, the koff is 0.0024 s⁻¹ and the kon was found to be 402000 M⁻¹ s⁻¹.

Take B6: the Kd came to 5560 pM, the koff was 0.00398 s⁻¹ and the kon is 716000 M⁻¹ s⁻¹.

The next test has as its target T4, human IL-17A. As to the kind of experiment: hIL17A ELISA.
A word on the EC50: it is the midpoint of the concentration-response curve. Molecule B8 came in with an EC50 of 40 pM.

In the case of B9, the EC50 stood at 40 pM.

Regarding B1, the EC50 was 30 pM.

In the case of B2, the response was half-maximal at 1200 pM (EC50).

In the case of B3, a half-maximal response (EC50) required 20 pM.

For the molecule B4, it took 30 pM to reach a half-maximal effect (EC50).

Turning to B5, the EC50 came to 30 pM.

Consider B6, for which the EC50 is 30 pM.

As for B7, the EC50 was determined as 30 pM.

A further test has as its target T4, human IL-17A. The test is described as follows: cell-based or functional assay. The source holds these as a separate data set.
For the molecule B10, the “Potency (pM)” value came out at 62 pM.

Another test concerns the target T6, human IL-17A (human, UniProt Q16552 24-155).
T6 construct: Biotinylated in the ELISA; also called hIL-17; Hu IL-17A
As to the kind of experiment: ELISA, captured antibody, serially diluted biotin-IL-17 (Example 1.5.1). (ELISA stands for enzyme-linked immunosorbent assay.)
T6 sequence (Q16552 24-155 limits assumed): as the sequence (A0A2K5TTB0 entry or part of it) above, with A3T, S8P, S34N, V77I, K78N, R104P counted along it
Experimental: The following protocol is used to characterize the binding of IL-17 antibodies to human IL-17 by enzyme-linked immunosorbent assay (ELISA). […] 1. Coat ELISA plate with 50 μl per well of Goat anti Mouse IgG-Fc at 2 ug/ml, overnight at 4° C. […] 2. Wash plate 3×PBS/Tween. […] 3. Add 50 μl Mab diluted to 1 μg/ml in PBS/0.1% BSA to appropriate wells. Incubate 1 hr at room temperature (RT). […] 4. Wash plate 3× with PBS/Tween. […] 5. Add 50 μl of serial diluted biotin-IL17 (human IL-17, IL-17A/F, cyno IL-17) to appropriate wells. Incubate 1 hr at room temperature (RT). […] 6. Wash plate 3× with PBS/Tween. […] 7. […] Incubate 1 hr at RT. […] 8. Wash plate 3× with PBS/Tween. […] 9. […] 10. Stop reaction with 50 μl 2N H₂SO₄. […] Read absorbance at 450 nm.
The molecule B11 registered an EC50 of 180 pM.

For the molecule B12, the EC50 was 60 pM.

Turning to B13, a half-maximal effect (EC50) was put at 80 pM.

Another test concerns the target T4, human IL-17A. The test is described as follows: cell-based or functional assay. The source holds these as a separate data set.
For the molecule B8, the “Potency (pM)” value turned out to be 117 pM.

As to B9, the “Potency (pM)” value was found to be 293 pM.

The next test concerns the target human IL-17A/F (human, UniProt Q16552 24-155; Q96PD4 31-163). As to the kind of experiment: cell-based or functional assay.
Target sequence in this assay (Q16552 24-155 limits assumed, chain 1 of 2): as the sequence (A0A2K5TTB0 entry or part of it) above, with A3T, S8P, S34N, V77I, K78N, R104P counted along it
Target sequence in this assay (Q96PD4 31-163 limits assumed, chain 2 of 2): as the sequence (Q96PD4 31-163, chain 2 of 2) above
Turning to B11, the “Potency (pM)” value amounted to 147 pM.

Take B12: the “Potency (pM)” value stood at 119 pM.

As for B13, the “Potency (pM)” value was 44 pM.

For a further test, the target named is T6, human IL-17A. As to the kind of experiment: cell-based or functional assay.
With B11, the “Potency (pM)” value was found to be 24 pM.

As for B12, the “Potency (pM)” value turned out to be 38 pM.

Consider B13, for which the “Potency (pM)” value is 38 pM.

In the next test the target is cynomolgous monkey (cyno) IL-17A (cynomolgus monkey, UniProt A0A2K5TTB0 24-155). As to the kind of experiment: cell-based or functional assay.
cynomolgous monkey (cyno) IL-17A, sequence (A0A2K5TTB0 entry or part of it): as the sequence (A0A2K5TTB0 entry or part of it) above
With B11, the “Potency (pM)” value came to 157 pM.

For B12, the “Potency (pM)” value amounted to 247 pM.

Consider B13, for which the “Potency (pM)” value is 105 pM.
